Measurements reported in the nanobody polyreactivity screen of Harvey et al. (2022).

Experiment: yeast display, Sf9 membrane polyspecificity reagent, FACS + sequencing; frameworks hold sequencing errors
Summary of the method: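 Nanobodies came from a synthetic yeast display library in Saccharomyces cerevisiae BJ5465, induced with galactose for 36–48 hours and stained for 1 hour at 4 °C with 10% biotinylated, detergent-solubilized Sf9 membrane reagent. Cells were enriched on streptavidin microbeads and then FACS-sorted, with low and high (top ~1%) gates set on anti-HA fluorescence for expression and streptavidin fluorescence for reagent binding. Each polyreactivity label reflects the gate a clone came from. Genes were amplified by colony PCR, sequenced by MiSeq 2 × 250 and filtered by CDR length.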

Sequence | polyreactivity (PSR sort gate)
QVQLVESGGGLVQAGGSLRLSCAASGSIFVFYAMGWYRQAPGKERELVAAINDGGSTHYADSVKGRFTISRDNAKNTVYLQMNSLKPEDTAVYYCAAEYVWYRYPDYWGAYDYWGQGTQVTVSS | low polyreactivity
QVQLVESGGGLVQAGGSLRLSCAASGSIFVGNAMGGYRQAPGKERELVAAITSSGGRTYYADSVKGRFTISRDNAKNTVYLQMNSLKPEDTAVYYCNTSRTRRFSLWAYDYWGQGTQVTVSS | high polyreactivity
QVQLVESGGGLVQAGGSLRLSCAASGSIFVGNAMGWYRPAPGKERELVAAITGRGSRTYYADSVKGRFTLSRDNAKNTVYLQMNSLKPEDTAVYYCAARYTNYGGFYWGQGTQVTVSS | high polyreactivity
QVQLVESGGGLVQAGGSLRLSCAASGSIFVGNAMGWYRQAPGKERELVAAISRSGGRTYYADSVKRRFTISRDNAKITVYLQMNSLKPEHTAVYYCNAYGWEQLQMDSWGQGTQVTVSS | high polyreactivity
QVQLVESGGGLVQAGGSLRLSCAASGSIFVGNAMGWYRQAPGKERELVAAISSSGGRTFYADSVKGRFTISRDNAKNTVYLQMNSLKPEDTAVYYCAAVYTHWQQRMDYWGQGTQVTVSS | high polyreactivity
QVQLVESGGGLVQAGGSLRLSCAASGSIFVGNAMGWYRQAPGKQRELVATISWSGGSTYYADSVKGRFTISRDNAKNTVYLQMNSVKPEDTAVYYCNAVYVSSFTGHDYWGQGTQVTVSS | low polyreactivity
QVQLVESGGGLVQAGGSLRLSCAASGSIFVGYAMGWYRQAPGKERELVAAISSNGGSTYYADSVKGRFTISRDNAKNTVYLQMNSLKPEDTAVYYCAKDYTYSFGRSLDYWGQGTQVTVSS | low polyreactivity
QVQLVESGGGLVQAGGSLRLSCAASGSIFVGYAMGWYRQAPGKERELVAAITGSGTRTYYADSVKGRFTISRDNAKNTVFLQMNSLKPEDTAVYYCAAPLSYKNVKYDYWGQGTQVTVSS | low polyreactivity
QVQLVESGGGLVQAGGSLRLSCAASGSIFVGYAMGWYRQAPGKERELVAAITKRGGSTSYADSVKGRFTISRDNAKNTVYLQMNSLKPEDTAVYYCAKLYYRHLYEYDYWGQGTQVTVSS | high polyreactivity
QVQLVESGGGLVQAGGSLRLSCAASGSIFVGYAMGWYRQAPGKERELVASITTPGGSTHYADSVKGRFTISRDNAKNTVYLQMNSLKPEDTAVYYCAADSLSNGVLQYLPGYDYWGQGTQVTVSS | low polyreactivity
QVQLVESGGGLVQAGGSLRLSCAASGSIFVGYDMGWYRQAPGKERDLVASINGGDSTNYADSVKGRFTISRDNAKYTVYLQMNSLKPEDTAVYYCAKDVTYTDEYDYWGQGTQVTVSS | low polyreactivity
QVQLVESGGGLVQAGGSLRLSCAASGSIFVGYGALGWYRQAHGKERELVAAITSGTSTYYADSVKGRFTISRDNAKNTVYLQINSLKPEDTAVYYCAARGFLKYVTEFDYWGQGTQVTVSS | low polyreactivity
QVQLVESGGGLVQAGGSLRLSCAASGSIFVGYVMGWYRQAPGKERELVAAISRSGGRTYYADSVKGRFTISRDNAKNTVYLQMNSLKPEDTAVYYCAADSYTQPYGSLPHKQRYEYWGQGTQVTVSS | low polyreactivity
QVQLVESGGGLVQAGGSLRLSCAASGSIFVHNAMGWSRQAPGKERELVAAITRGGSTYYADSVKGRFTISRDNAKNTVYLQMNSLKPEDTAVYYCAALAAWRWDLYDYWGQGTQVTVSS | low polyreactivity
QVQLVESGGGLVQAGGSLRLSCAASGSIFVLYAMGWYRQAPGKERELVAAISWRGGGTYYADSVKGRFTISRDNAKNTVYLLMNSLKPEDTAVYYCAAEYRLDAILYTYEFDYWGQGTQVTVSS | high polyreactivity
QVQLVESGGGLVQAGGSLRLSCAASGSIFVNKGMGWYRQAPGKERELVAAIRLSTGSTYYADSVKGRFTISRDNAKNTVYLKINSLKREDTAVDDCATRYYIWGNWGQGTQVTGSS | high polyreactivity
QVQLVESGGGLVQAGGSLRLSCAASGSIFVNNAMGWYRQAPGKERELVAAISSRGGSTYYADSVKGRFTISRDNAKNTVYLQMNSLKPEDTAVYYCAAEYDGPYYSFYPEQRYYWGQGTLVTVSS | low polyreactivity
QVQLVESGGGLVQAGGSLRLSCAASGSIFVNNAMGWYRQAPGKERELVAAISSRGGSTYYADSVKGRFTISRDNAKNTVYLQMYSLKPEDTAVYYCAAEYDGPYYSFYPEQRYYWGQGTQVTVSS | low polyreactivity
QVQLVESGGGLVQAGGSLRLSCAASGSIFVNNAMGWYRQAPGKERELVAAISSRSSRTFYADSVKGRFTISRDNAKNTVYLQMNSLKPEDTAVYYCAVKKRAPDGDYWGQGTQVTVSS | high polyreactivity
QVQLVESGGGLVQAGGSLRLSCAASGSIFVPNAMGWYSQAPGKERELVASISYSGTSTYYADSVKGRFTISRDNAKNTVYLQMNSLKPEDTAVYYCAVTWYPWYYGYWGQGTQVTVSS | high polyreactivity

Sequence | polyreactivity (PSR sort gate)
QVQLVESGGGLVQAGGSLRLSCAASGSIFVQYALGWYRQAPGKERELVAAISQRGGSTYYADSVKGRFTISRDNAKNTVYVQMNSLKPADTAVYYCRPYPPSYYVTFGYGYWGQGTQVTVSS | high polyreactivity
QVQLVESGGGLVQAGGSLRLSCAASGSIFVQYAMGWYRQAPGKERELVAAITRRAGSTYYADSVKGRFTISRDNAKNTVYLQMNSLKPEDTAVYYCAAGYRYRYTRDIWYEYWGQGTQVTVSS | high polyreactivity
QVQLVESGGGLVQAGGSLRLSCAASGSIFVRNAMGWYRQAPGKERELVAAISGSGGRTYYADSEKGRFTISRDNAKNTVYLQMNSLKPEDTAVYYCAKEVTYWYGGNYDYWGQGTQVTVSS | high polyreactivity
QVQLVESGGGLVQAGGSLRLSCAASGSIFVRNAMGWYRQAPGKERELVAAITYRGGSTYYADSVKGRFTISRDNAKNTVYLQMNSLKPEDTAVYYCAARYWQSYRSQVTHSSTLDYWGQGTQVTVSS | low polyreactivity
QVQLVESGGGLVQAGGSLRLSCAASGSIFVRNAMGWYRQAPGKERELVASISYSGGTTYADSVKGRFTISRDNAKNTVYLQMNSLKPEDTAVYYCNAGGVYPRFTFLEQGYEMDYWGQGTQVTVSS | low polyreactivity
QVQLVESGGGLVQAGGSLRLSCAASGSIFVRYAMGWYRQAPGKERELVAAISSGGRTYYADSVKGRFTISRDNAKNPVYLQMNSLKPEDTAVYYCNAVKRVPSLGPYDYWGQGTQVTVSS | high polyreactivity
QVQLVESGGGLVQAGGSLRLSCAASGSIFVRYAMGWYRQAPGKERELVAGITNSGGSTYYADSVKGRFTISRDNEKNTVYLQMNSLKPEDTAVYYCAADAGGWWYKYYYWGQGTQVTVSS | high polyreactivity
QVQLVESGGGLVQAGGSLRLSCAASGSIFVRYAMGWYRQAPGKERELVASIRSRGDSTYYADSVKGRFTISRDNAKNTVYLQMNSLKPEDTAVYYCAGRRYPPRMDYWGQGTQVTVSS | high polyreactivity
QVQLVESGGGLVQAGGSLRLSCAASGSIFVRYTMGWYRQAPGKEREMVAAISWGGGSTYYADSVKGRFTISRDNAKNTVYLQMNSLKPEDTAVYYCNADWSWYNYYDFDYWGQGTQVTVSS | low polyreactivity
QVQLVESGGGLVQAGGSLRLSCAASGSIFVSNAMGWYRQAPGKERELVAAISQSGGSTYYADSVKGRFTISRDNAKNTVYLQMNSLKPEDTAVYYCATPIRSGFRIYDYWGQGTQVTVSS | low polyreactivity
QVQLVESGGGLVQAGGSLRLSCAASGSIFVSYAMGWYRQAPGKERELVAAIRRGGTSTYYEDSVKGRFTISRDNAKNTVYLQMNSLKPEDTAVYYCAAPRYFTRYRPLGIYDYWGQGTQVTVSS | high polyreactivity
QVQLVESGGGLVQAGGSLRLSCAASGSIFVTNAMGWYRQAPGKERELVAAIRWSGDSTYYADSVKGRFTISRDNAKNTVYLQMKSLKPEDTAVYYCDAESFRYIRLNYKYGDYYWGHGTQVTVSS | high polyreactivity
QVQLVESGGGLVQAGGSLRLSCAASGSIFVTNAMGWYRQAPGKERELVAAITRGGNTNYADSVKGRFTISRDNAKNTVYLQMNSLKPEDTAVYYCAADTSYYYVYGYFPGYYYWGLGTQVTVSS | low polyreactivity
QVQLVESGGGLVQAGGSLRLSCAASGSIFVTYALGWYRQAPGKERELVAAINSGGRTNYADSVKGRFTISRDNAKNTVYLQMNSLKPEDTAVYYCAATGRYFYPYYRYDYWGQGTQVTVSS | low polyreactivity
QVQLVESGGGLVQAGGSLRLSCAASGSIFVTYAMGWYRPAPGKERELVAAISTSGGSTYADSVKGRFTISRDNAKNTVYLQMNSLKPVDTAVYYCNADDPGYAVPWYWFKYDYWGQGTQVTVSS | low polyreactivity
QVQLVESGGGLVQAGGSLRLSCAASGSIFVTYAMGWYRQAPGKERELVAAISTSGGSTYADSVKGRFTISRDNAKNTVYLQMNSLKPEDTAVYYCNADDPGYAVPWYWFKYDYWGQGTQVTVSS | low polyreactivity
QVQLVESGGGLVQAGGSLRLSCAASGSIFVVNAMGWYRQAPGKERELVAAIDWSDGGTYYADSVKGRFTISRDNAKNTVYLQMNSLKPEDTAVYYCATVRYVQITRDDYWGQGTQVTVSS | low polyreactivity
QVQLVESGGGLVQAGGSLRLSCAASGSIFVVYAMGWYRPAHGKERELVAAIDSGGSTYYADSVKGRFTISRDNAKNTVYLQMNSMKTEDTAVYYCAADIYYYLWGLYYWGQGTQVTVSS | low polyreactivity
QVQLVESGGGLVQAGGSLRLSCAASGSIFVVYAMGWYRQAPGKERELVASIRTGGSTNYADSVKGRFTISRDNAKNTVYLQMNSLKPEDTAVYYCAAASWNSKRHYYVARYYYWGQGTQVTVSS | high polyreactivity
QVQLVESGGGLVQAGGSLRLSCAASGSIFVVYAMGWYRQPPGKERELVAAIDSGGSTYYADSVKGRFTISRDNAKNTVYLQLNSLKPEDTAVSYCADDGSTWGDYRTYGYWGQGTQVTVSS | low polyreactivity
